Tests used:
[1] = test system: chicken transcription factor E2F4
[2] = test system: constitutively active form of chicken E2F4 (Thr261Glu/Thr263Glu)
[3] = test system: negative dominant form of chicken E2F4 (Thr261Ala/Thr263Ala)
Chain of negative dominant form of chicken E2F4 (Thr261Ala/Thr263Ala) (chain, as listed by the source T261A T263A): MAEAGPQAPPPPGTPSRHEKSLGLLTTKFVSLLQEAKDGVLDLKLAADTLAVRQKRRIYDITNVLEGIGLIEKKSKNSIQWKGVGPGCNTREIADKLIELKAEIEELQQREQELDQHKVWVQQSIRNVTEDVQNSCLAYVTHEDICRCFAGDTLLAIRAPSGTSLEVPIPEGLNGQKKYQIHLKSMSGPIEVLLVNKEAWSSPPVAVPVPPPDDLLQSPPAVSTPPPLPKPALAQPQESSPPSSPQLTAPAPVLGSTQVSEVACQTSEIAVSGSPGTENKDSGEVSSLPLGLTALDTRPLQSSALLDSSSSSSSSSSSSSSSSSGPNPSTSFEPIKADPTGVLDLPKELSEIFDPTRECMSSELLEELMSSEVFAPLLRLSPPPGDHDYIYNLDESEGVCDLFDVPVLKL

Chain of chicken transcription factor E2F4 (chain, as listed by the source): as the sequence (chain, as listed by the source T261A T263A) above, with A249T, A251T counted along it
Chain of constitutively active form of chicken E2F4 (Thr261Glu/Thr263Glu) (chain, as listed by the source T261E T263E): as the sequence (chain, as listed by the source T261A T263A) above, with A249E, A251E counted along it

For p38^MAPK, the “phosphorylation on threonine residues of E2F4 (Western blot with anti-phosphoThr antibodies in extracts immunoprecipitated with anti-E2F4 antibodies)” value [1] was “The presence of NGF can be seen to involve an increase in phosphorylation on threonine residues, while the presence of p38^MAPK inhibitor inhibits such phosphorylation”, the “incorporation of BrdU” value [2] was “The incorporation of BrdU increases significantly in cells transfected with the constitutively active form of E2F4 (E2F4-CA), an effect that can be observed even in the presence of selective p38^MAPK inhibitor SB203580 (used at 5 µM)” and the “incorporation of BrdU” value [3] was “The expression of the negative dominant form of E2F4 (E2F4-ND) prevents the effect of 100 ng/ml NGF on the incorporation of BrdU in retinal neurogenic cultures”.
